Results as given in patent publication US20180095066A1 (OXFORD NANOPORE TECHNOLOGIES, published 2018).
Changes are numbered by the printed parent chain. In names and notes the source's numbering stands.

T1: MspA-((Del-L74/G75/D118/L119)D56N/E59R/L88N/D90N/D91N/N108P/Q126R/D134R/E139K) monomer (Mycobacterium smegmatis, UniProt A0QR29 28-211)
T1 construct: Seven copies in each of the 7:1 pores MspA 2, MspA 3 and MspA 7; also called untagged monomer of MspA 2, MspA 3 and MspA 7
T1 chain: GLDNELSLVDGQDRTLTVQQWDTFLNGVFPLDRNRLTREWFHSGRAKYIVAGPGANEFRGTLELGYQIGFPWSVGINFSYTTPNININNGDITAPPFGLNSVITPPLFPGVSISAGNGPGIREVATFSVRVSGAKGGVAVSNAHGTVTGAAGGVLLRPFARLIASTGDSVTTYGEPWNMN

B1: MspA-((Del-L74/G75/D118/L119)D56N/E59R/L88N/D91N/Q126R/D134R/E139K/BasTL/H6) monomer (other)
chain: GLDNELSLVDGQDRTLTVQQWDTFLNGVFPLDRNRLTREWFHSGRAKYIVAGPGANEFRGTLELGYQIGFPWSVGINFSYTTPNINIDNGDITAPPFGLNSVITPNLFPGVSISAGNGPGIREVATFSVRVSGAKGGVAVSNAHGTVTGAAGGVLLRPFARLIASTGDSVTTYGEPWNMNDNQKALEEQMNSINSVNDKLNKGKGKLSLSMNGNQLKATSSNAGYGISYEDKNWGIFVNGEKVYTFNEKSTVGNISNDINKLNIKGPYIEIKKIHHHHHH
notes: also called tagged monomer of MspA 1
B2: MspA-((Del-L74/G75/D118/L119)D56N/E59R/L88N/D91N/N108P/Q126R/D134R/E139K/BasTL/H6) monomer (other)
chain: B1 chain with N106P
notes: One copy in MspA 2 (7:1); also called tagged monomer of MspA 2; monomer unit with the BasTL-H6 attached
B3: MspA-(G75S/G77S/L88N/D90N/D91N/D93N/D118R/Q126R/D134R/E139K) monomer (other)
chain: GLDNELSLVDGQDRTLTVQQWDTFLNGVFPLDRNRLTREWFHSGRAKYIVAGPGADEFEGTLELGYQIGFPWSLSVSINFSYTTPNININNGNITAPPFGLNSVITPNLFPGVSISARLGNGPGIREVATFSVRVSGAKGGVAVSNAHGTVTGAAGGVLLRPFARLIASTGDSVTTYGEPWNMN
notes: Made by coupled in vitro transcription and translation (35S-methionine) with rabbit red blood cell membranes; eight copies in the homo-oligomer; also called untagged monomer; untagged version
B4: MspA-(G75S/G77S/L88N/D90N/D91N/D93N/D118R/Q126R/D134R/E139K/BasTL) monomer (other)
chain: GLDNELSLVDGQDRTLTVQQWDTFLNGVFPLDRNRLTREWFHSGRAKYIVAGPGADEFEGTLELGYQIGFPWSLSVSINFSYTTPNININNGNITAPPFGLNSVITPNLFPGVSISARLGNGPGIREVATFSVRVSGAKGGVAVSNAHGTVTGAAGGVLLRPFARLIASTGDSVTTYGEPWNMNDNQKALEEQMNSINSVNDKLNKGKGKLSLSMNGNQLKATSSNAGYGISYEDKNWGIFVNGEKVYTFNEKSTVGNISNDINKLNIKGPYIEIKKI
notes: also called monomer tagged with full length BasTL
B5: MspA-((Del-L74/G75/D118/L119)D56N/E59R/L88N/D90N/D91N/Q126R/D134R/E139K) monomer (other)
chain: T1 chain with P106N
notes: Pore-forming monomer; Seven copies in MspA 1 (7:1), eight in the homo-oligomer MspA 6; also called untagged monomer of MspA 1; monomer of MspA 6
B6: MspA-(G75S/G77S/L88N/D90N/D91N/D93N/D118R/Q126R/D134R/E139K/D10H6) monomer (other)
chain: GLDNELSLVDGQDRTLTVQQWDTFLNGVFPLDRNRLTREWFHSGRAKYIVAGPGADEFEGTLELGYQIGFPWSLSVSINFSYTTPNININNGNITAPPFGLNSVITPNLFPGVSISARLGNGPGIREVATFSVRVSGAKGGVAVSNAHGTVTGAAGGVLLRPFARLIASTGDSVTTYGEPWNMNDDDDDDDDDDHHHHHH
notes: also called D10H6 tagged monomer

Experiments:
[1] = biological target: B5; experiment: co-expression in E. coli, His column, gel filtration, gel; 7:1 hetero-oligomer
[2] = biological target: T1, MspA-(Del-L74/G75/D118/L119)D56N/E59R/L …; experiment: co-expression under 14 induction conditions, NiNTA batch purification, 10% TGX gel
[3] = biological target: the molecule itself; experiment: IVTT with rRBCM, 7.5% Tris HCl gel, autoradiography
[4] = biological target: B3; experiment: IVTT of mixed DNA (2:1 untagged:tagged) with rRBCM, 7.5% Tris HCl gel, autoradiography
[5] = biological target: the molecule itself; experiment: 10% TGX gel, coomassie; homo-octamer, broken into monomers at 100 C in 50% DMSO
[6] = biological target: the molecule itself; experiment: IVTT with rRBCM, 5% Tris HCl gel, autoradiography; homo-oligomerisation

B1: binds [1].

B2: binds [2].

B3: binds [3].

B4: binds [4].

B5: binds [5].

B6: no binding [6].
